Experimental data: patent WO2021065846A1 (dated 2021)

Legend:
[1] = target: T1, anti-HIV-1 V3 antibody 1C10 (0.5γ); assay: SPR, Biacore T200, biotinylated 1C10 on SA chip, anti-idiotype antibody as analyte
T1 construct: Used as whole bivalent IgG; also called anti-V3 antibody 1C10; 1C10-biotin

[2] = target: T1, anti-HIV-1 V3 antibody 1C10 (0.5γ); assay: inhibition ELISA: biotinylated 1C10 on NNT20 V3 peptide
[3] = target: T1, anti-HIV-1 V3 antibody 1C10 (0.5γ); assay: sandwich ELISA: Fab #92 coated as capture, 1C10, biotinylated IgG #87 as detection

T1 sequence (VH, as listed by the source, chain 1 of 2): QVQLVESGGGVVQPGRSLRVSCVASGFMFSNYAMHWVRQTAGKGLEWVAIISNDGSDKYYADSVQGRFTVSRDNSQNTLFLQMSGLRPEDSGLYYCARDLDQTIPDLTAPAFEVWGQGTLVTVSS
T1 sequence (VL, as listed by the source, chain 2 of 2): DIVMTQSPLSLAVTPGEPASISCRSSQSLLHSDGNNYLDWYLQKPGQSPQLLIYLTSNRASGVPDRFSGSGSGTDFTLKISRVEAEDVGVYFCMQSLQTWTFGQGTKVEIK

Binder	binding result [2]	other results
anti-1C10 idiotype antibody #87 (IgG) (antibody, V domains shown, Mouse variable regions cloned into human IgG expression vectors (pIgGH, pKVA2); Biotinylated where used as detection antibody; also called clone #87; IgG#87) VH: QVQLVETGGGLVRPGNSLKLSCVTSGFTFSTYRMHWLRQPPGKRLEWIAVITVKSDGYGANYAQSLKDRFTISRDDSKSSVFLQMNRLREEDTATYYCSRGPDFYGSTYWYFDVWGAGTT VL: DIVMTQSPSSLDVSVGEKVSMSCKSSQSLLYRSNQKNYLAWYQQKPGQSPRLLIYWASTRESGVPDRFTGSGSGTDFTLTISSVKAEDLAVYYCQQYYSYSTFGAGTKVELK		Kd [1]: 0.0343 nM
anti-1C10 idiotype antibody #102 (IgG) (antibody, V domains shown, Mouse variable regions cloned into human IgG expression vectors (pIgGH, pKVA2)) VH: EVKLLESGGGLVQPGISLKLSCAASGFDFTRDWMSWVRQAPGKGLEWIGEINPDSSAINYTPSLRDKFIISRDNAKNTLYLQMSKVRSEDTALYYCARRGYYGYYLDYWGQGTTLTVSS VL: DIVMTQSPSSLAVSVGEKVTMSCKSSQSLFFRSNQKNYLAWYQQKPGQSPKLLIYWASTGESGVPDRFTGSGSGTDFTLTISSVKAEDLAVYYCQQYYSYPTFGGGTKLEIK	binds	
Fab of anti-1C10 idiotype antibody #92 (Fab, V domains shown, VH cloned into a Fab heavy chain expression vector, co-expressed with the light chain vector, purified on His60 Ni resin; also called Fab#92; #92Fab) VH: QVQLQQSGAELAKPGASVKMSCKASGYTFTNYWMHWVKQRPGQGLEWIGFINPNTDYTEYNQKFTDKATLTADKSSNTAYMQLSSLTSEDSALYYCAREDTWFAYWGQGTLVTVSA VL: DIQMTQSPASLSASVGETVTITCRASENIYSYLAWYQQKQGKSPQLLVYNAKALAEGVPSRFSGSGSGTQFSLKINSLQPEDFGSYYCQHHYRTPYAFGGGTKLEIK		binding result [3]: binds
anti-1C10 idiotype antibody #92 (IgG) (antibody, V domains shown, Mouse variable regions cloned into human IgG expression vectors (pIgGH, pKVA2); also called clone #92; IgG#92) VH: QVQLQQSGAELAKPGASVKMSCKASGYTFTNYWMHWVKQRPGQGLEWIGFINPNTDYTEYNQKFTDKATLTADKSSNTAYMQLSSLTSEDSALYYCAREDTWFAYWGQGTLVTVSA VL: DIQMTQSPASLSASVGETVTITCRASENIYSYLAWYQQKQGKSPQLLVYNAKALAEGVPSRFSGSGSGTQFSLKINSLQPEDFGSYYCQHHYRTPYAFGGGTKLEIK	binds	
